Data taken from patent publication US20160257760A1 (OXFORD BIOTHERAPEUTICS, published 2016).

Legend:
[1] = molecular target: Contiguous 8mer peptides of LY75 protein spanning residues 216 to 1666 of the full length LY75 protein (peptide microarray); assay: peptide microarray, 1 ug/mL LY75_A1, anti-human IgG Alexa 647, scan at 635 nm
YFHQHSIL = molecular target: T1, YFHQHSIL; assay: peptide microarray, 1 µg/mL LY75_A1, anti-human IgG Alexa 647
T1 peptide: YFHQHSIL
Experimental: (§1) The chip comprised three panels such that the experiment was performed in triplicate. […] The binding assay was performed under the following conditions:—The microarray comprising the contiguous peptides in triplicate was washed with 1 mL of binding buffer at 4° C. for 20 min. […] The array was again washed with 0.5 mL of washing buffer at 4° C. for 30 min.

VYFHQHSI = molecular target: T2, VYFHQHSI; assay: as above
T2 peptide: VYFHQHSI
Experimental: as §1

EAVYFHQH = molecular target: T3, EAVYFHQH; assay: as above
T3 peptide: EAVYFHQH
Experimental: as §1

AVYFHQHS = molecular target: T4, AVYFHQHS; assay: as above
T4 peptide: AVYFHQHS
Experimental: as §1

KLSRLTYS = molecular target: T5, KLSRLTYS; assay: as above
T5 peptide: KLSRLTYS
Experimental: as §1

KKLSRLTY = molecular target: T6, KKLSRLTY; assay: as above
T6 peptide: KKLSRLTY
Experimental: as §1

LSRLTYSS = molecular target: T7, LSRLTYSS; assay: as above
T7 peptide: LSRLTYSS
Experimental: as §1

IIPKTLTW = molecular target: T8, IIPKTLTW; assay: as above
T8 peptide: IIPKTLTW
Experimental: as §1

TLTWHSAK = molecular target: T9, TLTWHSAK; assay: as above
T9 peptide: TLTWHSAK
Experimental: as §1

IPKTLTWH = molecular target: T10, IPKTLTWH; assay: as above
T10 peptide: IPKTLTWH
Experimental: as §1

NNLYKIIP = molecular target: T11, NNLYKIIP; assay: as above
T11 peptide: NNLYKIIP
Experimental: as §1

LTYSNFHP = molecular target: T12, LTYSNFHP; assay: as above
T12 peptide: LTYSNFHP
Experimental: as §1

TYSNFHPL = molecular target: T13, TYSNFHPL; assay: as above
T13 peptide: TYSNFHPL
Experimental: as §1

ELTYSNFH = molecular target: T14, ELTYSNFH; assay: as above
T14 peptide: ELTYSNFH
Experimental: as §1

YSNFHPLL = molecular target: T15, YSNFHPLL; assay: as above
T15 peptide: YSNFHPLL
Experimental: as §1

YKGHCYKS = molecular target: T16, YKGHCYKS; assay: as above
T16 peptide: YKGHCYKS
Experimental: as §1

QYKGHCYK = molecular target: T17, QYKGHCYK; assay: as above
T17 peptide: QYKGHCYK
Experimental: as §1

WIQYKGHC = molecular target: T18, WIQYKGHC; assay: as above
T18 peptide: WIQYKGHC
Experimental: as §1

KSDQALHS = molecular target: T19, KSDQALHS; assay: as above
T19 peptide: KSDQALHS
Experimental: as §1

HCYKSDQA = molecular target: T20, HCYKSDQA; assay: as above
T20 peptide: HCYKSDQA
Experimental: as §1

CYKSDQAL = molecular target: T21, CYKSDQAL; assay: as above
T21 peptide: CYKSDQAL
Experimental: as §1

GSRWIQYK = molecular target: T22, GSRWIQYK; assay: as above
T22 peptide: GSRWIQYK
Experimental: as §1

NGSRWIQY = molecular target: T23, NGSRWIQY; assay: as above
T23 peptide: NGSRWIQY
Experimental: as §1

SRWIQYKG = molecular target: T24, SRWIQYKG; assay: as above
T24 peptide: SRWIQYKG
Experimental: as §1

RWIQYKGH = molecular target: T25, RWIQYKGH; assay: as above
T25 peptide: RWIQYKGH
Experimental: as §1

YKSDQALH = molecular target: T26, YKSDQALH; assay: as above
T26 peptide: YKSDQALH
Experimental: as §1

DREFIYLR = molecular target: T27, DREFIYLR; assay: as above
T27 peptide: DREFIYLR
Experimental: as §1

RRGWHFYD = molecular target: T28, RRGWHFYD; assay: as above
T28 peptide: RRGWHFYD
Experimental: as §1

EFIYLRPF = molecular target: T29, EFIYLRPF; assay: as above
T29 peptide: EFIYLRPF
Experimental: as §1

PWRRGWHF = molecular target: T30, PWRRGWHF; assay: as above
T30 peptide: PWRRGWHF
Experimental: as §1

[2] = molecular target: T31, LY75 tryptic peptide GWHFYDDR (765-772); assay: as above
T31 construct: Tryptic peptide of recombinant LY75, eluted from LY75_A1 beads and identified by LC-MS/MS
T31 peptide: GWHFYDDR
Experimental: as §1

YDDREFIY = molecular target: T32, YDDREFIY; assay: as above
T32 peptide: YDDREFIY
Experimental: as §1

B1: LY75_A1 monoclonal antibody (antibody, V domains shown)
VH: EVQLVESGGGLVKPGGSLRLSCAASGFTYSNAWMSWVRQAPGKGLEWVGRIKSKTDGGTTDYAAPVQGRFTISRDDSKNTLYLQMNSLKTEDTAVYYCTIFGVVSFDYWGQGTLVTVSS
VL: DVQMTQSPSSLSASVGDRVTITCRASQSISDYLSWYQQRPGKAPNLLIYAASNLKTGVPSRFSGSGSGTDFTLTISTLQPEDFATYYCQQSYRSPWTFGQGTKVEIKR
notes: also called LY75A1 antibody; LY75_A1 antibody
885: average signal for all spots on the array (signal intensity (scale 1-65535)) [1]
binds: binding result (YFHQHSIL) | binding result (VYFHQHSI) | binding result (EAVYFHQH) | binding result (AVYFHQHS) | binding result (KLSRLTYS) | binding result (KKLSRLTY) | binding result (LSRLTYSS) | binding result (LTYSNFHP) | binding result (TYSNFHPL) | binding result (ELTYSNFH) | binding result (YSNFHPLL) | binding result (YKGHCYKS) | binding result (QYKGHCYK) | binding result (GSRWIQYK) | binding result (NGSRWIQY) | binding result (SRWIQYKG) | binding result (RWIQYKGH) | binding result (YKSDQALH) | binding result (DREFIYLR) | binding result (RRGWHFYD) | binding result (EFIYLRPF) | binding result (PWRRGWHF) | binding result [2] | binding result (YDDREFIY)
25000: maximum signal intensity (signal intensity (scale 1-65535)) [1]
no binding (tested: 1 µg/mL): binding result (IIPKTLTW) | binding result (TLTWHSAK) | binding result (IPKTLTWH) | binding result (NNLYKIIP) | binding result (WIQYKGHC) | binding result (KSDQALHS) | binding result (HCYKSDQA) | binding result (CYKSDQAL)
